Values belong to the binder of their own block, whether it stands above or below them.
Experiments:
[1] = target: T1, interleukin-33 of rhesus monkeys (rhesus monkey, UniProt F7DLG4 112-269); experiment: SPR (Biacore T200), antibody captured on Protein A chip
T1 construct: also called rhesus monkey IL-33
T1 sequence: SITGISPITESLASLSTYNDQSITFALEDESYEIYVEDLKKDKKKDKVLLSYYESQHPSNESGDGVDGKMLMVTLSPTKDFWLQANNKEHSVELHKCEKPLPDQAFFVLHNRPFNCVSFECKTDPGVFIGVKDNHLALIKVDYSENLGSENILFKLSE

[2] = target: T2, human interleukin-33 (hIL-33) (human, UniProt O95760 112-270); experiment: SPR (Biacore T200, 25 C), antibody captured on Protein A chip, antigen as analyte, 1:1 model
T2 construct: The immunogen was bought from Novoprotein; also called recombinant human interleukin-33
T2 sequence: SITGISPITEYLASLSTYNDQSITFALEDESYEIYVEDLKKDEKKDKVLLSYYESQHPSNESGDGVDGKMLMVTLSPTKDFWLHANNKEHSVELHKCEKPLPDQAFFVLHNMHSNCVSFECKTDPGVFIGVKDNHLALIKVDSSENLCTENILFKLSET
Experimental: Commercialized Protein A chip was used to immobilize an appropriate amount of antibody by capture method, so that the Rmax was about 50 RU, and the capture flow rate was 10 μl/min. The antigen was diluted by gradient, the flow rate of the instrument was switched to 30 μl/min, and the antigen flowed through the reference channel and the channel of the immobilized antibody in order of concentration from low to high, and the buffer was used as a negative control. After each binding and dissociation, the chip was regenerated with glycine at pH 1.5. The 1:1 binding model in Kinetics option was selected for fitting using the analysis software that comes with the instrument, and the binding rate constant kₐ, the dissociation rate constant kd and the equilibrium dissociation constant KD value of the antibody were calculated.
In addition, the affinity of QX007N (HZD78-70) and Etokimab/ANB020, a monoclonal antibody against human interleukin-33 developed by AnaptysBio were compared, and the detection method for known antibodies was the same as that for QX007N. Particularly, Etokimab/ANB020 was self-made by constructing an expression plasmid according to the APE4909 sequence provided by the patent WO2015106080A2, and transiently transfecting ExpiCHO-S cells.

[3] = target: T2, human interleukin-33 (hIL-33); experiment: cell-based or functional assay
[4] = target: T3, natural human interleukin-33 (human) (UniProt O95760); experiment: cell-based or functional assay
T3 sequence (looked up): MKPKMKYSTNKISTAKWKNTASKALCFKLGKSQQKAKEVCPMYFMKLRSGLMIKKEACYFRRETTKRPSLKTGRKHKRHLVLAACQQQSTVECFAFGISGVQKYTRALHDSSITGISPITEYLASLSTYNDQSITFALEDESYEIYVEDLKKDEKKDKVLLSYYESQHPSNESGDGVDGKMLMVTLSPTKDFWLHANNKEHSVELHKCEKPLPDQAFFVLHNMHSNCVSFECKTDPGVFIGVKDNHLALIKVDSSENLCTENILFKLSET

- binding result [1]: no binding
- Kd [2]: 1.23 nM
- koff [2]: 0.000481 s⁻¹
- kon [2]: 392000 M⁻¹ s⁻¹
B1: QX007N (HZD78-70) (antibody, human IgG1, kappa, V domains shown)
VH: EVQLVESGGGLVQPGGSLRLSCAASGFSLSSYHMIWVRQAPGKGLEWVGVIYPNSNIYYATWAKGRFTISRDNSKNTLYLQMNSLRAEDTAVYYCARTIYVHVYSALSIWGQGTLVTVSS
VL: AFQMTQSPSSVSASVGDRVTITCQASESVLNEVSWYQQKPGKAPKLLIYFASKLASGVPSRFSGSGSGTDFTLTISSLQPEDFATYYCQQDWSMDNIDNAFGGGTKVEIKR
notes: Humanized rabbit antibody, expressed in ExpiCHO-S cells and purified with Protein A; also called humanized 78#

- inhibition of NF-KB/AP-1 signal transduction in HEK Blue IL-33 cells induced by recombinant human interleukin-33 (SEAP, OD630nm) [3]: 6.05 ng/mL
- neutralization of IFN-gamma release from human whole blood induced by recombinant human interleukin-33 [3]: 31.9 ng/mL
- neutralization of IL-5 release from KU812 cells induced by recombinant human interleukin-33 (IL-5 ELISA) [3]: 44 ng/mL
- inhibition of NF-KB/AP-1 signal transduction in HEK Blue IL-33 cells induced by natural human interleukin-33 (SEAP, OD630nm) [4]: 2.5 ng/mL
- Kd [2]: 0.869 nM
- koff [2]: 0.000369 s⁻¹
- kon [2]: 424000 M⁻¹ s⁻¹
B2: Etokimab/ANB020 (antibody, INN chains, looked up, V domains shown)
VH: QVQLMQSGAEVKKPGASVKVSCKASGYTFTSYWMHWVRQAPGQGLEWMGTIYPRNSNTDYNQKFKARVTMTRDTSTSTVYMELSSLRSEDTAVYYCARPLYYYLTSPPTLFWGQGTLVTVSS
VL: DIQLTQSPSFLSASVGDRVTITCKASQDVGTAVAWYQQKPGKAPKLLIYWASTRHTGVPSRFSGSGSGTEFTLTISSLQPEDFATYYCQQAKTYPFTFGSGTKLEIK
